The source of these data is patent US20160115212A1.

The experiment addresses HLA class II molecules of healthy donors carrying different HLA DR alleles. Kind of experiment: cell-based or functional assay.

HSKIIIIKKGHAK [IGFBP3 169-181]: the IFNγ producing CD4-positive T-cells, donor 1, after an additional round of stimulation fell in the range of 0.09 to 0.13%; the IFNγ producing CD4-positive T-cells, donor 1, after the third stimulation fell in the range of 0.05 to 0.1%; the maximal frequency of IFNγ producing CD4^+T-cells, donor 2 turned out to be 0.05%; the maximal frequency of IFNγ producing CD4^+T-cells, donor 3 worked out at 0.07%.
